Values quoted from earlier work as cited in paper PMC10955226.

Biological target: WWC1 WW tandem (Homo sapiens) (UniProt Q8IX03)
UniProt Q8IX03, sequence (Q8IX03 6-86): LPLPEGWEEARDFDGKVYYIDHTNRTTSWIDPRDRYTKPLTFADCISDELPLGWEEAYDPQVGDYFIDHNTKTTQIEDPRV

Kd: 58 nM
Substance: JCAD PPxY motifs (from UniProt Q9P266)
